Target: the molecule itself
Assay: crystal structure

B1: NM23-H2 R88A mutant (enzyme, human)
chain: ANLERTFIAIKPDGVQRGLVGEIIKRFEQKGFRLVAMKFLRASEEHLKQHYIDLKDRPFFPGLVKYMNSGPVVAMVWEGLNVVKTGAVMLGETNPADSKPGTIRGDFCIQVGRNIIHGSDSVKSAEKEISLWFKPEELVDYKSCAHDWVYE
  stoichiometry N: 6
